Source: publication PMC8432352

Assays:
Assay in all cases: SDS-PAGE without heating
[1] = target: Tail spike protein 2 (TSP2) of Salmonella phage S117 (Salmonella phage S117)
[2] = target: Tail spike protein 3 (TSP3) of Salmonella phage S117 (Salmonella phage S117)
[3] = target: Tail spike protein 4 (TSP4) of Salmonella phage S117 (Salmonella phage S117)
[4] = target: Tail spike protein 1 (TSP1) of Salmonella phage S117 (Salmonella phage S117)

Q: With “Tail spike protein 2 (TSP2) of Salmonella phage S117 (natural protein)” as the substance, how does the stoichiometry N [1] read?
A: Its stoichiometry N is 3.

Q: With “Tail spike protein 3 (TSP3) of Salmonella phage S117 (natural protein)” as the substance, how does the stoichiometry N [2] read?
A: The stoichiometry N was 3.

Q: For “Tail spike protein 4 (TSP4) of Salmonella phage S117 (natural protein)”, which stoichiometry N [3] is on record?
A: Its stoichiometry N is 3.

Q: With “Tail spike protein 1 (TSP1) of Salmonella phage S117 (natural protein)” as the substance, how does the stoichiometry N [4] read?
A: The stoichiometry N was 3.
